Consider 41 sequences from the nanobody polyreactivity screen of Harvey et al. (2022).

This data set is described as follows: yeast display, Sf9 membrane polyspecificity reagent, FACS + sequencing; frameworks hold sequencing errors. The procedure, abridged: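 Nanobodies came from a synthetic yeast display library in Saccharomyces cerevisiae BJ5465, induced with galactose for 36–48 hours and stained for 1 hour at 4 °C with 10% biotinylated, detergent-solubilized Sf9 membrane reagent. Cells were enriched on streptavidin microbeads and then FACS-sorted, with low and high (top ~1%) gates set on anti-HA fluorescence for expression and streptavidin fluorescence for reagent binding. Each polyreactivity label reflects the gate a clone came from. Genes were amplified by colony PCR, sequenced by MiSeq 2 × 250 and filtered by CDR length.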
Regarding “QLQLVESGGGLVQAGGSLRLSCAASGRIFIYNAMGWYRQAPGKERELVAAINRSGVSTHYADSVKGRFTISRDNAKNTVYLQMNSLKPEDTAVYYCARTVYGARSFDYWGQGTQVTVSS”, the “polyreactivity (PSR sort gate)” value is “low polyreactivity”.

For “QLQLVESGGGLVQAGGSLRLSCAASGRIFQDNPKGWYRPPPSKERELVAAISISGGITYYADSVKGRFTISRDNAKNTVYLQMNSLKPEDTAVYYCNKSISARLPGRYDYWGQGTQVTVSS”, the “polyreactivity (PSR sort gate)” value is listed as “low polyreactivity”.

Regarding “QLQLVESGGGLVQAGGSLRLSCAASGRIFVLYTMGRNRQATGKERELVAAISNVGSTNYADSVKGRFTISRDNAKYTVYLQMNSLIPEDTAVYYCNDRRRYGWHLYYYWGQGTQVTVSS”, the “polyreactivity (PSR sort gate)” value is “high polyreactivity”.

In the case of “QLQLVESGGGLVQAGGSLRLSCAASGRIFVRYAMGWYRQAPGKERELVAAISGRGTSTYYADSVKGRFTISRDNAKNTVYLQMNSLKPEDTAVYDCNTFSQPKWGTSDYDYWGQGTQVTVSS”, the “polyreactivity (PSR sort gate)” value is recorded as “high polyreactivity”.

Take “QLQLVESGGGLVQAGGSLRLSCAASGRIYLYAMGWSRQAPGKERELVAAITTRAGRTYYADSVKGRFTISRDNAKNTVYFQMNSLKPEDTAVYYCAADGTRYPAYGYWGQGTQVTVSS”: the “polyreactivity (PSR sort gate)” value is “low polyreactivity”.

In the case of “QLQLVESGGGLVQAGGSLRLSCAASGRTFRSYTMGRYRQAPGKERELVASITRSGVSTYYADSVKGRFTISRDNAKNTVYLQMNSLKPEDTAVYYCAAYSVFRSYDYWGQGTQVTVSS”, the “polyreactivity (PSR sort gate)” value is reported as “high polyreactivity”.

As for “QLQLVESGGGLVQAGGSLRLSCAASGSIFGDNAMGWYRQAPGKERELVAAISSSGGSTYADSVKGRFTISRDNAKNTVYLQMNSLKPEDTAVYYCATQIAWGTYVINPQMDYWGQGTQVTVSS”, the “polyreactivity (PSR sort gate)” value is reported as “low polyreactivity”.

Take “QLQLVESGGGLVQAGGSLRLSCAASGSIFGPYARGWYRQAPGKERELVAAITDGGGSTYYADSVKGRFTISRDNAKNTVYLQMNSLKPEETAVDYCAADHSSKSGPADTFYWFDYWGQGTQVTVSS”: the “polyreactivity (PSR sort gate)” value is given as “low polyreactivity”.

For “QLQLVESGGGLVQAGGSLRLSCAASGSILTINAMGWYSQAPGKERELVAAITGNGGSTDYADSVKVRFTISRDNAKNTVYLQMNSQKPEDTAVYYCAARVRGTGVYGGYNYWGQGTQVTVSS”, the “polyreactivity (PSR sort gate)” value is recorded as “high polyreactivity”.

On to “QLQLVESGGGLVQAGGSLRLSCAASGSTFDTYAMGWYRHAPGKERELVAGINTDGDNTYYADSVKGRFTISRDNAKNTVYVQMNSLKPEDTAVYYCAARFYRASGRTPSYRGHHYDYWGQATQVTVSS”, for which the “polyreactivity (PSR sort gate)” value is “low polyreactivity”.

As to “QLQLVESGGGLVQAGGSLRLSCAASGSTFRNNAMGWYRQAPGKERELVAAISRGGGSTYYADSVKWRFTISRDNAKNTVYLQMNSLKPDDTAVYYCARRPTGIYDYWGQGTQVTVSS”, the “polyreactivity (PSR sort gate)” value is given as “high polyreactivity”.

As to “QLQLVESGGGLVQAGGSLRLSCAASGSTFRWYAKGWYRQAPGKERELVAAISYSGGRTYYADSVKGRFTISRDTAKNTVYLQMNSLKPEDTAVYYCAADYVESKSLLEYWGQGTQVTVSS”, the “polyreactivity (PSR sort gate)” value is “low polyreactivity”.

As for “QLQLVESGGGLVQAGGSLRLSCAASGSTFRYYAMGWYRQAPGKERELVAAISRTGGSTYYADSVKVRFTISRDNAKNTVYLQMNSLKPEDTAVYYCNVRQFLNRYTSWDYRYHYDYWGQGSQVTVSS”, the “polyreactivity (PSR sort gate)” value is “high polyreactivity”.

As to “QLQLVESGGGLVQAGGSLRLSCAASGSTFSYNAMGWYRQAPWKERELVAAISGSGGTTYYADSVKVRVTISRDNAKNTVYLQMNSLKPEDTAVYYCAARPFRSWRYDYWGQGSQVTVSS”, the “polyreactivity (PSR sort gate)” value is listed as “low polyreactivity”.

For “QLQLVESGGGLVQAGGSLRLSCAASGSTQGVYAMGSYRQAPGKERELVAAISRSGGRTYYADSVKGRFTISRDNAKNTVYLQMNSLKPEDTAVYYCAADYYLWVYWYDYWGQGTQVTVSS”, the “polyreactivity (PSR sort gate)” value was “high polyreactivity”.

As for “QLQLVESGGGLVQAGGSLRLSCAASGTIFDTYAMGWSRQAPGKEMELVAAIRWTGGSTYYADSVKGRFTISRENAKNTVYFQMNSLKPEDTAVYYCAATWYYHYNDWKPWFEYGYWGQGTQVTVSS”, the “polyreactivity (PSR sort gate)” value is given as “low polyreactivity”.

For the sequence “QLQLVESGGGLVQAGGSLRLSCAASRSTFKYYAMGWYRQAHGKERELVAAISRRGGSTYYADSVKGRFTISRDNAKNTVYLQMNSLKPEDTAVYYCAADIIRPVTVDYWGQGTQVTVSS”, the “polyreactivity (PSR sort gate)” value was “high polyreactivity”.

Regarding “QLQLVESGGGLVQAGGSLRLSCAATGFIFRYYVMGWYRQAPGKERELVAAITSGSTYADSVKGRFTISRDNAKNTVYLQMISLKPEDTAVYYCAAVKSQRGGPYSRGGKFGYWGQGTQVTVSS”, the “polyreactivity (PSR sort gate)” value was “high polyreactivity”.

On to “QLQLVESGGGLVQAGGSLRLSSAASGIIRVNAMGWNIQAPGKQRELVATITNVGSTNYADSVKGRFTISRDNAKNTVYLQMNSLKPEDTAVYYCAAEYDGPFYSFYPEQRYYWGQGTQVTVSS”, for which the “polyreactivity (PSR sort gate)” value is on record as “low polyreactivity”.

Consider “QLQLVESGGGLVQAGGSLRVSCAASGSIFLRYAMGWYRQAAGKERELVAAITSSGGSTYYADSVKGRFTISRDNAKNTVYLQMNSLKPEDTAVYYCNRYSYLFPYYWKYDYWGQGTQVTVSS”, for which the “polyreactivity (PSR sort gate)” value is “high polyreactivity”.

As to “QLQLVESGGGLVQSGGSLRLSCAASGRTFDWYTKGWYRQAPGKERELVAAITSGGTTNYADSVKGRFTISRDNAKNTVYLQMNSLKPEDTAVYYCAKDEGEGYDYWGQGTQVTVSS”, the “polyreactivity (PSR sort gate)” value is on record as “low polyreactivity”.

Turning to “QLQLVESGGVLDQAGRSLRLICAASVIIFRGYAKGRSRQAHGKERELVAAISRSGGRTYYADSVKGRFTISRDNAKKTVYLQRNSLKTEDTAVYYCAPQWLYLEYDYWGQGTQVTVSS”, the “polyreactivity (PSR sort gate)” value was “high polyreactivity”.

Consider “QLQLVESGRGLVQAGGSLRLSCAGSGFIVGYNAMGSYRQAPGKDRELVAAISSGGSTYYADSVKGRFTISRVNAKNTVYLQMNSLKPEDTAVYYCAVELGYPIQSYALWWDFEYWGQGTQVTVSS”, for which the “polyreactivity (PSR sort gate)” value is “low polyreactivity”.

As for “QLQLVESLRGLVQAGGSLRLSCAASVSIIGPNAMGLYRQATGKERELVAAITLSGGSTYYADSVKGRFTISRDNAKNTVYLQMNSLKPEDTAVYYCNADLLPADAPLWVTGGDYWGQGTQVTESS”, the “polyreactivity (PSR sort gate)” value is “low polyreactivity”.

For the sequence “QLQLVESRGGLVQSGGSLRLSCAASGRIFWRYAMGWYRQAPGNERELVAAISGRSGSTYYADSVKGRFTISRDNAKNTVYLLMNSLKAEDTAVYYCAAKYGTLRYDYWGQGTQVTVSS”, the “polyreactivity (PSR sort gate)” value is listed as “high polyreactivity”.

Regarding “QLQLVESVGGLVQAGGSLRLSCAPSGSTFYWNAMGWYRQAPGKERELVAVITSSGTRTYYADSVKGRFTISRDNAKNTVYLQMNSLKPEDTEVDYCAKRETYTGPNSRYGQWKKVYYWGQGTQVTVSS”, the “polyreactivity (PSR sort gate)” value is listed as “low polyreactivity”.

Turning to “QLQPVESGGGLVQAGGSLRLSSAASGSTFVSYDRGWYRQAPGKERALVAVITSGGSTNYADSVKGRFTISRDNAKNTVYLQMNSLKPEETAVYYCAKRRYGRSGGSRYHYWGQGTQVTVSS”, the “polyreactivity (PSR sort gate)” value is listed as “high polyreactivity”.

Turning to “QLQRVESGGGLVQAGGSLRLSCAASGSTFYPNAMGWYRQAPAKEREFVAAISTSAGRTYYADSVKGRFTISRDNAKNTVYLQMNSLKPEDTAVYYCNARYWVYYVYEYDSWGQGTQVTVSS”, the “polyreactivity (PSR sort gate)” value is given as “low polyreactivity”.

As to “QVELQVSGGGLVRAGGSLRLSCAASGNIFDADIMGWYRQAPGKERELVASITGGGSTSYAESAKGRFTISRDNAKNAVYLQMKSLKPEDTAVYYCARDSWWYHHYDYWGQGTQVTVSS”, the “polyreactivity (PSR sort gate)” value was “low polyreactivity”.

With “QVELQVSGGGLVRAGGSLRLSCAASGNIFDADIMGWYRQAPGKERELVASITGGGSTSYAESAKGRFTISRDNAKNAVYLQMNSLKPEDTAVYYCARDSWWYHHYDYWGQGTQVTVSS”, the “polyreactivity (PSR sort gate)” value was “low polyreactivity”.

In the case of “QVELVASGGGLVQAGGSLRLSCAASGSTFAANAMGWYRQAPGKERELVAAITSGGGSTYYADSVKGRFTISRDNEKITVYLQMNSLKPEDTAVYYCAALQSHGVDYDYWGLGTQVTVSS”, the “polyreactivity (PSR sort gate)” value is “low polyreactivity”.

“QVELVESGGCLVQARGSLRLSCAGSGSIFYRNAMGWYRQAPGKERELVAAISSDGSTNYADSVKGRFTISRDNAKITVDLQMNSLIPEDTAVYYCAGPWTEILDYWGQGTQVTVSS”: the “polyreactivity (PSR sort gate)” value is given as “low polyreactivity”.

“QVELVESGGGLVQAGGSLRLSCAASGSTFFKYDMGWYRQAPGKERELVAVITWSGGTTFYADSVKGRFTISRDNAKNTVYLQMNSLKPEDTAVYYCAADYYGYRYDYWGQGTQVTVSS”: the “polyreactivity (PSR sort gate)” value is on record as “low polyreactivity”.

Take “QVHHVESGGGLVQAGGSLRLSCAASGFIIPYYAMGWYRPAPGKERELVAAISWSGSNTYYADSVKGRFTISRDNAKNTVYLQMNSLKPEDTAVYYCAARYSVYYFVQRNGRYGYWGQGTQVTVSS”: the “polyreactivity (PSR sort gate)” value is on record as “high polyreactivity”.

Take “QVHHVESGGGLVQAGGSLRLSCAASGLILVPNTMGWYRQAPGKERELVAAISYSGGGTYYADSVKGRFTISRDNAKNNVYLQMNSLKPEDTAVYYCAAYVKRESAPYGYWGQGTQVTVSS”: the “polyreactivity (PSR sort gate)” value is “low polyreactivity”.

For the sequence “QVHLEESGGGLVQAGGSLRLSSAASGFTFRSNAMGWYRQAPGKERELVAAITSRGGSTYYADSVKGRFTISRDYAINTVYLQMNSLKPEDTAVYYGAADGRSRKFDYWGQGTQVTVSS”, the “polyreactivity (PSR sort gate)” value was “high polyreactivity”.

On to “QVHLGETGGGLVQAGGSLRLSCAASGSIFSSYAMGWYRQAPGKETELVATITRGGRTSYADSVKGRFTISRDNAKNTVYLQMNSLKPEDTAVDYCAADLYDNVGEFNYWGEGTQVTVSS”, for which the “polyreactivity (PSR sort gate)” value is “low polyreactivity”.

On to “QVHLLESWGGLFHAGGSPRLSCAASGRTFGRYAMGWYRQSPATERELVAAITFRGGHSYYADSVKGRFTISRDNAKNTVYFQMNSLKPEDTAVYYCAKRGGYWHKFDYWGQGTQVTVSS”, for which the “polyreactivity (PSR sort gate)” value is given as “high polyreactivity”.

As to “QVHLQECGDGLVQALGSQRLSCAARCYISGYYYMGWYRQAPGKERELVAGIDAFGSSTNYADCVKGRFTISRYNAKNTVYLQMKSLKPEDTALYYCAARPDGDRLFSYWGQGTQVTVFS”, the “polyreactivity (PSR sort gate)” value was “low polyreactivity”.

As to “QVHLQESGGGLEQAGGSPRLSCAASDNIFPDSVMCWYRQAPGKERELVATIGFGATTNYADSVKGRFTISRDNAKKTVFLQMNSLKPEDTAVYYCAADTLNYEYFCYWGQGTQVTVRS”, the “polyreactivity (PSR sort gate)” value is given as “low polyreactivity”.

As to “QVHLVDSAGGLVQAGGSLRLSCSASGSTFAVYAMGWYRQAPGKERELVAAISSSGDRTYYADSVKGRFTFSRDNAKNTVYLQMNILKPEDTAVYYCAVAIGYVYKTYYYWGQGTQVTVSS”, the “polyreactivity (PSR sort gate)” value is given as “high polyreactivity”.
